In the supplement of paper PMC10126150:
± gives the standard deviation of the averaged measurements.

Tested on: ATP
Test: switch fluorescence ratio, 500 uM ATP over buffer (Cy3 cluster intensity, sum of 5 cycles each) (fold (ratio)); higher = stronger signal-on switching upon ATP binding; sequences stand for … in TCGTCGGCAGCGTCAGATGTGTATAAGAGACAGTTTTTTTTTTTTTTTTTTTTTTTTT…TC
Conditions: aptamer strand: ATP DNA aptamer (quencher-CACCTGGGGGAGTATTGCGGAGGAAGG + anchor), 100 nM annealed; ATP concentration: 500 uM
Summary of the method: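 Cy3-labelled switching-strand clusters on a modified Illumina MiSeq flow-cell were annealed to 100 nM quencher-labelled ATP aptamer and imaged first in selection buffer, then after 15 min with 500 uM ATP at 22 °C. NaOH stripping and re-annealing separated each of five buffer/ATP cycles, and clusters outside 100-1000 RFU were excluded. The fluorescence ratio sums target-cycle Cy3 intensity over buffer-cycle Cy3 intensity per cluster and averages it per switch-domain sequence.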
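Further: ATP exposure 15 min at 22 °C before imaging.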

Sequence	switch fluorescence ratio
CTTGGATGGG	0.9858 ± 0.0089
CTTGGATGTC	0.985 ± 0.03
CTTGGGCATG	0.988 ± 0.019
CTTGGGGAGC	0.982 ± 0.07
CTTGGGGATG	0.997 ± 0.042
CTTGGGGCTA	1.03 ± 0.088
CTTGGGGCTC	0.9457 ± 0.0082
CTTGGGGGCG	1.01 ± 0.056
CTTGGGGGTC	0.989 ± 0.014
CTTGGTAATA	1.062 ± 0.0066
CTTGGTAGGG	1.03 ± 0.051
CTTGGTCCCG	1.01 ± 0.011
CTTGGTGACG	1.09 ± 0.031
CTTGGTGGGA	1.04 ± 0.012
CTTGGTGGTG	0.995 ± 0.019
CTTGGTTGCG	0.999 ± 0.014
CTTGGTTGCT	0.997 ± 0.032
CTTGGTTTAG	1.01 ± 0.035
CTTGTAACTT	1.01 ± 0.032
CTTGTAAGGT	0.976 ± 0.022
CTTGTCAAGT	0.984 ± 0.071
CTTGTCACCA	0.988 ± 0.022
CTTGTCGTGC	0.995 ± 0.033
CTTGTGACAC	1.02 ± 0.033
CTTGTGAGGG	0.985 ± 0.037

Sequence	switch fluorescence ratio
CTTGTGGCGG	0.97 ± 0.0098
CTTGTGTGTC	0.999 ± 0.015
CTTTAAAAAG	1 ± 0.059
CTTTAACGAG	0.9976 ± 0.0043
CTTTAACGGT	1 ± 0.026
CTTTAACGTT	0.981 ± 0.0073
CTTTAAGCTT	0.9981 ± 0.0027
CTTTAATGTT	0.988 ± 0.037
CTTTACGTCG	0.982 ± 0.016
CTTTACTAGG	1.016 ± 0.0052
CTTTAGGGTG	1.06 ± 0.047
CTTTAGTACG	0.9734 ± 0.0012
CTTTATATCT	0.993 ± 0.03
CTTTCCTATG	1.07 ± 0.019
CTTTCTGGGG	0.991 ± 0.017
CTTTGAATTG	0.987 ± 0.023
CTTTGAGACG	0.978 ± 0.068
CTTTGCTAAC	2.21 ± 0.072
CTTTGGAACT	1.06 ± 0.065
CTTTGGGGAT	1.05 ± 0.12
CTTTGGTGTC	1.01 ± 0.029
CTTTGGTGTT	1.01 ± 0.017
CTTTGTCAGT	0.979 ± 0.03
CTTTGTTATG	0.9909 ± 0.0047
CTTTGTTGGT	0.9831 ± 0.0082

Sequence	switch fluorescence ratio
CTTTGTTTTT	0.9893 ± 0.0089
CTTTTACCGG	1.04 ± 0.013
CTTTTAGGGG	1.01 ± 0.012
CTTTTGCGCA	1.007 ± 0.0079
CTTTTGGCCT	1.03 ± 0.038
CTTTTGGTTT	0.975 ± 0.032
CTTTTTGTTT	1.01 ± 0.041
CTTTTTTGGG	1.01 ± 0.014
CTTTTTTTTG	0.993 ± 0.017
GAAAAAACAC	1.16 ± 0.1
GAAAAAATGG	1.15 ± 0.26
GAAAAAGAGG	0.985 ± 0.019
GAAAAAGATT	0.999 ± 0.017
GAAAAAGCGG	1.04 ± 0.015
GAAAAAGGCA	0.974 ± 0.033
GAAAAAGGCC	1.02 ± 0.011
GAAAAATGAC	0.999 ± 0.021
GAAAACAGTT	0.9951 ± 0.0053
GAAAACGAAT	1.07 ± 0.14
GAAAAGATTG	0.972 ± 0.024
GAAAAGGGGG	0.992 ± 0.053
GAAACAGACA	1.08 ± 0.035
GAAACATTGG	1.0357 ± 0.00021
GAAACCGTGG	1.06 ± 0.019
GAAACGAATT	1.02 ± 0.018

Sequence	switch fluorescence ratio
GAAACTTGTG	0.963 ± 0.025
GAAAGAGGGT	1.03 ± 0.035
GAAAGATACC	1.03 ± 0.043
GAAAGCGGTG	1.01 ± 0.015
GAAAGGAAAA	0.975 ± 0.016
GAAAGGCGAG	1.11 ± 0.053
GAAAGGGAAA	1.03 ± 0.032
GAAAGGGCTG	1.05 ± 0.087
GAAAGGGGCC	1.01 ± 0.066
GAAAGGGGGC	0.963 ± 0.041
GAAAGGGTTA	0.9898 ± 0.0085
GAAAGTCTGT	1.07 ± 0.087
GAAAGTTCGA	0.987 ± 0.01
GAAATAAAAT	1 ± 0.024
GAAATACCTT	0.976 ± 0.0021
GAAATACTCT	1.44 ± 0.12
GAAATAGGTA	0.988 ± 0.013
GAAATATCAT	0.971 ± 0.018
GAAATATGGC	1.15 ± 0.062
GAAATCACTC	1.15 ± 0.13
GAAATCGCCA	1.022 ± 0.007
GAAATCGGAT	0.972 ± 0.016
GAAATGATGG	0.978 ± 0.0013
GAAATGGGGG	0.991 ± 0.028
GAAATTAAGC	1.06 ± 0.057
